Data taken from patent US6942988 (Johns Hopkins, dated 2005).

T1: full-length mouse Ptc (patched receptor) (mouse, UniProt Q61115 1-1434)
T1 construct: whole, on cells; Predicted mass 159 kDa
T1 sequence (looked up): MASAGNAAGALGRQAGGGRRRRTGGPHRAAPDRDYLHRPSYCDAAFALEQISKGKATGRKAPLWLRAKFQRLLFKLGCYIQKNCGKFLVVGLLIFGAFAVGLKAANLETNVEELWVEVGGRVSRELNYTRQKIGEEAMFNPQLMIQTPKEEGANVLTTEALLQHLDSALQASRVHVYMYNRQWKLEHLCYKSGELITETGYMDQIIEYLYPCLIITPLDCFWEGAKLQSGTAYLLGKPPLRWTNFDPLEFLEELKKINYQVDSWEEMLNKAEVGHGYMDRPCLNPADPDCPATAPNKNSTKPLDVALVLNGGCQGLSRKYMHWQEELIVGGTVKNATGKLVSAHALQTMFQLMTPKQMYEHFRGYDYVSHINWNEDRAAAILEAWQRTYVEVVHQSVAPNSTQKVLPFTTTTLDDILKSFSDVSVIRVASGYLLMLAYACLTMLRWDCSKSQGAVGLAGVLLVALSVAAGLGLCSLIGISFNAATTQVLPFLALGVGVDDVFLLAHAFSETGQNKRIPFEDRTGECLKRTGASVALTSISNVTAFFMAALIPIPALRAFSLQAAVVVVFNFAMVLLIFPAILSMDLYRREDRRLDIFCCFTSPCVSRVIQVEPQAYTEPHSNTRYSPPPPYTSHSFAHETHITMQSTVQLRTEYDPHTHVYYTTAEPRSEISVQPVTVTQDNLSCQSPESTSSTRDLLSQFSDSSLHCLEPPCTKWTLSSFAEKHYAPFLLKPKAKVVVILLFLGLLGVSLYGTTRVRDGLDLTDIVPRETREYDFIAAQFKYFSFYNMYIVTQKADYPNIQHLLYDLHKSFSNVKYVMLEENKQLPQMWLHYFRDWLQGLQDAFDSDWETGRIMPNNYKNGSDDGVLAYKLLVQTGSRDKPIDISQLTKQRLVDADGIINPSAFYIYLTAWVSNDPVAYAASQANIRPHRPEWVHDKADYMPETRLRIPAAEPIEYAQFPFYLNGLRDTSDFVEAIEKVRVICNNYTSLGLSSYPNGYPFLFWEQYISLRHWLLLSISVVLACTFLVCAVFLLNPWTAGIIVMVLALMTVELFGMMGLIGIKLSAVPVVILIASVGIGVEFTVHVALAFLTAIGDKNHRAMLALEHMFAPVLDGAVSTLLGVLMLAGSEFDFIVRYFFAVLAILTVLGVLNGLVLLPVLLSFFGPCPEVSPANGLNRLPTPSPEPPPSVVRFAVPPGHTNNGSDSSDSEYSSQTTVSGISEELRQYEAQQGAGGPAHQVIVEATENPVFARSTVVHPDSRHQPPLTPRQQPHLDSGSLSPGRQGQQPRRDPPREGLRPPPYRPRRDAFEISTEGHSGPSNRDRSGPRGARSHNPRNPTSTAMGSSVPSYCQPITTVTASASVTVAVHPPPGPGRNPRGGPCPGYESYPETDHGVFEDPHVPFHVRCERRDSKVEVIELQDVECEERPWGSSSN


Legend:
[1] = target: T2, Ptc (patched receptor) of the cells of chicken intermediate neural plate explants; experiment: cell-based or functional assay
T2 sequence (Q90693 whole entry): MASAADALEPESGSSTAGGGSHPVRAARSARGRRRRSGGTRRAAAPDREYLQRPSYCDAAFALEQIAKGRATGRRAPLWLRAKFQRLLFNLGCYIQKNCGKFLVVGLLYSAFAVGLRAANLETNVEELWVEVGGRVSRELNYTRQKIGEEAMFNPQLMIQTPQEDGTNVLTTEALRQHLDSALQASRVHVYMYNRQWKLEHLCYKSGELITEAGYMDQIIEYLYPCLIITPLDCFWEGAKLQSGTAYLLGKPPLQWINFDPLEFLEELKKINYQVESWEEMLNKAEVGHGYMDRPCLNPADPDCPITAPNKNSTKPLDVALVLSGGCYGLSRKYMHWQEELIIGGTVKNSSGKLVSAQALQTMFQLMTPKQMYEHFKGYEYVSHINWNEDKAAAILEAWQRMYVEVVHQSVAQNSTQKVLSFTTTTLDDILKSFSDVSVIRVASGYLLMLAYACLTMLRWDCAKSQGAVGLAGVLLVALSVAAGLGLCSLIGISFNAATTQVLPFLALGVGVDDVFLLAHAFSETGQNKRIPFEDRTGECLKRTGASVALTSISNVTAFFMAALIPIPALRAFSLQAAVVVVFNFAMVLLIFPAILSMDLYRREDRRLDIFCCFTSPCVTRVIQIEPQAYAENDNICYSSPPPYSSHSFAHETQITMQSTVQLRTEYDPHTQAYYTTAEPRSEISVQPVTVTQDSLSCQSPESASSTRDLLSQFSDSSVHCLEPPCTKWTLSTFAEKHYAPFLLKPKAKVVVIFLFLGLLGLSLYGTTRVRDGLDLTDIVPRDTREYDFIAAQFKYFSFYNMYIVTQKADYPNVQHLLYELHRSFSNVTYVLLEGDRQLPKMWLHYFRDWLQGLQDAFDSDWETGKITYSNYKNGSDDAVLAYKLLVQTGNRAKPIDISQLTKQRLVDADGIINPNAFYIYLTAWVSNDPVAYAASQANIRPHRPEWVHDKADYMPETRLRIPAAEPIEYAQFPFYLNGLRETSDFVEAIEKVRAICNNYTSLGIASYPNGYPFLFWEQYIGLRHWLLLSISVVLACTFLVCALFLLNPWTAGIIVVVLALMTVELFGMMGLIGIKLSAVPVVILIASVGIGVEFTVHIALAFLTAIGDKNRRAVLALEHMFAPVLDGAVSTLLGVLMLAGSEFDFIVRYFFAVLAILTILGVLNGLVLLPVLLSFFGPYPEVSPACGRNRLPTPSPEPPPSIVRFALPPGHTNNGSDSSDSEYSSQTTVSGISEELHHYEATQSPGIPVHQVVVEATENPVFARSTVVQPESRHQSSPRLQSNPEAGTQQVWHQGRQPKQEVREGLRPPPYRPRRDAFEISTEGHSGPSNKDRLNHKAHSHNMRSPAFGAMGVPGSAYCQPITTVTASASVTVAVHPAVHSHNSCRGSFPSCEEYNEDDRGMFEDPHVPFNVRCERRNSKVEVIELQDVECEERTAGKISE

[2] = target: T2, Ptc (patched receptor) of the cells of …; experiment: cell-based or functional assay; remark: listed apart in the source
[3] = target: T1, full-length mouse Ptc (patched receptor); experiment: competition of the disuccinimidyl suberate crosslinking of 32P-Shh-N to Ptc-expressing EcR-293 cells

Binder	HNF-3β induction, nM (minimum concentration for uniform induction, chicken neural plate explants) [1] [nM]	Pax-7 repression, nM (minimum concentration for complete repression, chicken neural plate explants) [1] [nM]	reduction in neural plate signaling activity against wild type [2] [fold]	binding result [3]
Shh-N SB altered protein (N51A, V52A, T56A, E168A) (ligand) not shown	≥ 20	~4	–	–
Shh-N H135A, E177A double mutant (EH) protein (ligand) not shown	≥ 20	~10	–	–
Shh-N SA altered protein (K75A, E76A, Y81A, D105A, N116A, E189A, K195A) (ligand) not shown	≤ 20	~4	–	–

Other lines, results leading:

HNF-3β induction, nM (minimum concentration for uniform induction, chicken neural plate explants) [1] [nM]	Pax-7 repression, nM (minimum concentration for complete repression, chicken neural plate explants) [1] [nM]	reduction in neural plate signaling activity against wild type [2] [fold]	binding result [3]	Binder
≥ 100	~70	–	–	Shh-N SF protein (R154A, S157A) (ligand) not shown
≥ 20	~10	~2.5	–	Shh-N SD altered protein (E90A, D132A, E138A) (ligand) not shown
~100	~30	–	–	Shh-N SG protein (S178A, K179A) (ligand) not shown
> 1000	> 1000	–	no binding	Shh-N SC mutant protein (P42A, K46A, R154A, S157A, S178A, K179A) (ligand, Limits of the entry not visible; also called SC altered protein) not shown
~100	~20	–	–	Shh-N SE protein (P42A, K46A) (ligand) not shown
